Data on one molecule can be found in publication PMC6955223, “The adaptor proteins HAP1a and GRIP1 collaborate to activate the kinesin-1 isoform KIF5C” (Journal of Cell Science, 2019).

In this experiment the target is T1, KIF5C–Halo (UniProt P28738 1-956, HaloTag TMR ligand on the HaloTag).
T1 construct: kinesin-1 heavy chain KIF5C; construct from Twelvetrees et al., 2016; also called KIF5C labelled with HaloTag TMR ligand; motor; source: COS cells, transfected, in lysate
T1 sequence (looked up): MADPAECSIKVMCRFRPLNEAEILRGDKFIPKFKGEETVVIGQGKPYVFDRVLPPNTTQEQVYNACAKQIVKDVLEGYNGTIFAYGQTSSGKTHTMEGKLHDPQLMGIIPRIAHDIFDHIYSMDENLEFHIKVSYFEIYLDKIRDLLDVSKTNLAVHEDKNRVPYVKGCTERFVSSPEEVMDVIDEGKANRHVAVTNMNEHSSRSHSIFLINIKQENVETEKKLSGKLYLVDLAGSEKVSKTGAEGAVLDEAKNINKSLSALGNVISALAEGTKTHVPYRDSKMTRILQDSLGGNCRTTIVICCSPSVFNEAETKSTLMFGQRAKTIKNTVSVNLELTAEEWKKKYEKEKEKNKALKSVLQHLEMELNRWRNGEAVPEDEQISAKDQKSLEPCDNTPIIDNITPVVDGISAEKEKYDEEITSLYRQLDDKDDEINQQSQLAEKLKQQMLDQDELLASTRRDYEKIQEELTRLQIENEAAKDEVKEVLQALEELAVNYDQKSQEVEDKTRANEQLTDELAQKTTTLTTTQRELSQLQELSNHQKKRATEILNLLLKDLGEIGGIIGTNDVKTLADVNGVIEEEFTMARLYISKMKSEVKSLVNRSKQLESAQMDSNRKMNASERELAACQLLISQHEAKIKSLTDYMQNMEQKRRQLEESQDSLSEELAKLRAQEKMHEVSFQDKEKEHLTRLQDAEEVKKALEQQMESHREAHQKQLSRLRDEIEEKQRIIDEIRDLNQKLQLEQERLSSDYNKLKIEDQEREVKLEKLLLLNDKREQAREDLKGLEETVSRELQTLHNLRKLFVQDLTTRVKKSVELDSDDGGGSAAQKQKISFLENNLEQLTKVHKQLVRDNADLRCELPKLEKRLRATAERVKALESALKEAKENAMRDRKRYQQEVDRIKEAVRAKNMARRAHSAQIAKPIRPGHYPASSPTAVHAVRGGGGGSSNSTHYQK
The experiment can be described thus: counting of GFP photobleaching steps (TIRFM); motor–adaptor complexes from mixed cell lysates immobilised on microtubules with 15 mM AMP-PNP instead of ATP; GFP-labelled HAP1a and GRIP1 both present; bleaching steps counted for each spot. The following applies: partners not purified.

B1: GFP-labelled HAP1a (natural protein, rat, UniProt P54256-2 1-599, looked up)
chain: MRPKDQVQSSAGDGTGSGDPATGTPTTQPAADPAPEPSAEPKPAPAQGTGSGQKSGSRTKTGGSFCRSRIRGDSDAPWTRYIFQGPYGPRATGLGTGRAEGIWKTPAAYIGRRPGVSGPERAAFIRELQEALCPNPLPRKKITEDDIKVMLYLLEEKERDLNTAARIGQSLVKQNSVLMEENNKLETMLGSAREEILHLRKQVNLRDDLLQLYSDSDDDEEDEEDEEEEEGEEEEREGQRDQDQQHDHPYGAPKPPPKAETLHHCPQLEALKQKLKLLEEENDHLREEASHLDNLEDKEQMLILECVEQFSEASQQMAELSEVLVLRLEGYERQQKEITQLQAEITKLQQRCQSYGAQTEKLQQQLASEKGVHPESLRAGSHMQDYGSRPRERQEDGKSHRQRSSMPAGSVTHYGYSVPLDALPSFPETLAEELRTSLRKFITDPAYFMERCDTRCREERKKEQGTMPPPPVQDLKPPEDFEAPEELVPEEELGAIEEVGTAEDGPAEETEQASEETEAWEEVEPEVDEATRMNVVVSALEASGLGPSHLDMKYVLQQLSNWQDAHSKRQQKQKVVPKGECSRRGHPPASGTSYRSSTL
notes: huntingtin-associated protein 1, rodent isoform HAP1a; Construct not described in the methods; named only in the sentence on photobleaching; source: cell lysate (COS cells as for the motility assay)
As a reminder, the stoichiometry N is the number of molecules, sites or subunits per partner or assembly. Take B1: the “stoichiometry N” value was 2 HAP1a molecules per motor.
